Assay results from the supplement of paper PMC10567573.

B1: CHIT1 (parent)
chain: CSWKGATKQRIQDQKVPYIFRDNQ

Variants of: B1
Experiment: protein stability index of a GFP-peptide fusion (GPS, HEK-293T) (PSI 1-6); higher = more stable
Details: c terminus: a fixed tail appended
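Note: lentivirally expressed fusions sorted by FACS into six bins by GFP to DsRed ratio, PSI derived from sequencing read proportions per bin multiplied by bin number.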

Point of comparison: CSWKGATKQRNQDQKVPYIFRDNQ [I11N], protein stability index 2.56. Against it:
- CSWKGATKQGIQDQKVPYIFRDNQ [R10G] — lower, 2.38
- CSWKGATKQHIQDQKVPYIFRDNQ [R10H] — higher, 2.94
- CSWKGATKQIIQDQKVPYIFRDNQ [R10I] — lower, 1.64
- CSWKGATKQKIQDQKVPYIFRDNQ [R10K] — higher, 2.67
- CSWKGATKQLIQDQKVPYIFRDNQ [R10L] — lower, 2.41
- CSWKGATKQMIQDQKVPYIFRDNQ [R10M] — higher, 2.6
- CSWKGATKQNIQDQKVPYIFRDNQ [R10N] — higher, 3.46
- CSWKGATKQPIQDQKVPYIFRDNQ [R10P] — lower, 2.47
- CSWKGATKQQIQDQKVPYIFRDNQ [R10Q] — higher, 2.8
- CSWKGATKQSIQDQKVPYIFRDNQ [R10S] — higher, 2.81
- CSWKGATKQTIQDQKVPYIFRDNQ [R10T] — higher, 3.68
- CSWKGATKQVIQDQKVPYIFRDNQ [R10V] — lower, 2.43
- CSWKGATKQWIQDQKVPYIFRDNQ [R10W] — lower, 1.67
- CSWKGATKQYIQDQKVPYIFRDNQ [R10Y] — lower, 2.54
- CSWKGATKQRAQDQKVPYIFRDNQ [I11A] — higher, 2.85
- CSWKGATKQRCQDQKVPYIFRDNQ [I11C] — lower, 2.3
- CSWKGATKQRDQDQKVPYIFRDNQ [I11D] — higher, 3.74
- CSWKGATKQREQDQKVPYIFRDNQ [I11E] — higher, 3.33
- CSWKGATKQRFQDQKVPYIFRDNQ [I11F] — lower, 2.44
- CSWKGATKQRGQDQKVPYIFRDNQ [I11G] — lower, 2.32
- CSWKGATKQRHQDQKVPYIFRDNQ [I11H] — higher, 3.42
- CSWKGATKQRKQDQKVPYIFRDNQ [I11K] — higher, 2.69
- CSWKGATKQRLQDQKVPYIFRDNQ [I11L] — higher, 3.14
- CSWKGATKQRMQDQKVPYIFRDNQ [I11M] — lower, 2.5
- CSWKGATKQRPQDQKVPYIFRDNQ [I11P] — lower, 2.1
- CSWKGATKQRQQDQKVPYIFRDNQ [I11Q] — higher, 3.54
- CSWKGATKQRRQDQKVPYIFRDNQ [I11R] — higher, 3.15
- CSWKGATKQRSQDQKVPYIFRDNQ [I11S] — higher, 3.01
- CSWKGATKQRTQDQKVPYIFRDNQ [I11T] — higher, 2.66
- CSWKGATKQRVQDQKVPYIFRDNQ [I11V] — higher, 2.98
- CSWKGATKQRWQDQKVPYIFRDNQ [I11W] — lower, 2.07
- CSWKGATKQRYQDQKVPYIFRDNQ [I11Y] — lower, 2.51
- CSWKGATKQRIADQKVPYIFRDNQ [Q12A] — higher, 2.67
- CSWKGATKQRIDDQKVPYIFRDNQ [Q12D] — higher, 3.08
- CSWKGATKQRIEDQKVPYIFRDNQ [Q12E] — lower, 2.45
- CSWKGATKQRIFDQKVPYIFRDNQ [Q12F] — lower, 1.69
- CSWKGATKQRIGDQKVPYIFRDNQ [Q12G] — lower, 2.31
- CSWKGATKQRIHDQKVPYIFRDNQ [Q12H] — lower, 2.09
- CSWKGATKQRIIDQKVPYIFRDNQ [Q12I] — lower, 2.02
- CSWKGATKQRILDQKVPYIFRDNQ [Q12L] — lower, 2.18
- CSWKGATKQRIMDQKVPYIFRDNQ [Q12M] — higher, 3.82
- CSWKGATKQRINDQKVPYIFRDNQ [Q12N] — lower, 2.28
- CSWKGATKQRIPDQKVPYIFRDNQ [Q12P] — higher, 2.78
- CSWKGATKQRIRDQKVPYIFRDNQ [Q12R] — lower, 1.83
- CSWKGATKQRISDQKVPYIFRDNQ [Q12S] — higher, 2.6
- CSWKGATKQRITDQKVPYIFRDNQ [Q12T] — higher, 2.9
- CSWKGATKQRIWDQKVPYIFRDNQ [Q12W] — lower, 1.12
- CSWKGATKQRIYDQKVPYIFRDNQ [Q12Y] — lower, 2.38
- CSWKGATKQRIQAQKVPYIFRDNQ [D13A] — higher, 2.81
- CSWKGATKQRIQCQKVPYIFRDNQ [D13C] — lower, 2.47
- CSWKGATKQRIQEQKVPYIFRDNQ [D13E] — lower, 2.52
- CSWKGATKQRIQFQKVPYIFRDNQ [D13F] — lower, 1.8
- CSWKGATKQRIQGQKVPYIFRDNQ [D13G] — lower, 2.15
- CSWKGATKQRIQHQKVPYIFRDNQ [D13H] — lower, 1.78
- CSWKGATKQRIQIQKVPYIFRDNQ [D13I] — lower, 1.5
- CSWKGATKQRIQKQKVPYIFRDNQ [D13K] — lower, 1.84
- CSWKGATKQRIQLQKVPYIFRDNQ [D13L] — lower, 1.75
- CSWKGATKQRIQMQKVPYIFRDNQ [D13M] — higher, 2.91
- CSWKGATKQRIQNQKVPYIFRDNQ [D13N] — lower, 1.61
- CSWKGATKQRIQPQKVPYIFRDNQ [D13P] — lower, 1.83
- CSWKGATKQRIQQQKVPYIFRDNQ [D13Q] — lower, 2.31
- CSWKGATKQRIQRQKVPYIFRDNQ [D13R] — lower, 1.69
- CSWKGATKQRIQSQKVPYIFRDNQ [D13S] — lower, 1.73
- CSWKGATKQRIQTQKVPYIFRDNQ [D13T] — the same, 2.56
- CSWKGATKQRIQVQKVPYIFRDNQ [D13V] — lower, 2.42
- CSWKGATKQRIQWQKVPYIFRDNQ [D13W] — lower, 1.25
- CSWKGATKQRIQYQKVPYIFRDNQ [D13Y] — lower, 1.83
- CSWKGATKQRIQDAKVPYIFRDNQ [Q14A] — higher, 3.46
- CSWKGATKQRIQDCKVPYIFRDNQ [Q14C] — higher, 2.6
- CSWKGATKQRIQDDKVPYIFRDNQ [Q14D] — higher, 2.81
- CSWKGATKQRIQDEKVPYIFRDNQ [Q14E] — higher, 2.79
- CSWKGATKQRIQDFKVPYIFRDNQ [Q14F] — lower, 2.47
- CSWKGATKQRIQDGKVPYIFRDNQ [Q14G] — higher, 2.79
- CSWKGATKQRIQDHKVPYIFRDNQ [Q14H] — higher, 3.06
- CSWKGATKQRIQDIKVPYIFRDNQ [Q14I] — lower, 2.35
- CSWKGATKQRIQDKKVPYIFRDNQ [Q14K] — lower, 1.87
- CSWKGATKQRIQDLKVPYIFRDNQ [Q14L] — lower, 2.04
- CSWKGATKQRIQDMKVPYIFRDNQ [Q14M] — lower, 2.21
- CSWKGATKQRIQDNKVPYIFRDNQ [Q14N] — higher, 2.91
- CSWKGATKQRIQDPKVPYIFRDNQ [Q14P] — higher, 2.98
- CSWKGATKQRIQDRKVPYIFRDNQ [Q14R] — lower, 2.34
- CSWKGATKQRIQDSKVPYIFRDNQ [Q14S] — lower, 2.37
- CSWKGATKQRIQDTKVPYIFRDNQ [Q14T] — higher, 2.88
- CSWKGATKQRIQDVKVPYIFRDNQ [Q14V] — lower, 1.94
- CSWKGATKQRIQDWKVPYIFRDNQ [Q14W] — lower, 1.99
- CSWKGATKQRIQDYKVPYIFRDNQ [Q14Y] — lower, 1.92
- CSWKGATKQRIQDQCVPYIFRDNQ [K15C] — higher, 2.99
- CSWKGATKQRIQDQDVPYIFRDNQ [K15D] — higher, 3.09
- CSWKGATKQRIQDQFVPYIFRDNQ [K15F] — lower, 1.54
- CSWKGATKQRIQDQGVPYIFRDNQ [K15G] — lower, 2.15
- CSWKGATKQRIQDQHVPYIFRDNQ [K15H] — lower, 2.26
- CSWKGATKQRIQDQIVPYIFRDNQ [K15I] — lower, 2.44
- CSWKGATKQRIQDQLVPYIFRDNQ [K15L] — lower, 2.2
